Measured values taken from patent publication US20170210813A1 (Regeneron, published 2017).

T1: Macaca fascicularis PDGFRb.mmh (Macaca fascicularis)
T1 construct: Soluble monomeric construct; also called mfPDGFRb.mmh
T1 chain: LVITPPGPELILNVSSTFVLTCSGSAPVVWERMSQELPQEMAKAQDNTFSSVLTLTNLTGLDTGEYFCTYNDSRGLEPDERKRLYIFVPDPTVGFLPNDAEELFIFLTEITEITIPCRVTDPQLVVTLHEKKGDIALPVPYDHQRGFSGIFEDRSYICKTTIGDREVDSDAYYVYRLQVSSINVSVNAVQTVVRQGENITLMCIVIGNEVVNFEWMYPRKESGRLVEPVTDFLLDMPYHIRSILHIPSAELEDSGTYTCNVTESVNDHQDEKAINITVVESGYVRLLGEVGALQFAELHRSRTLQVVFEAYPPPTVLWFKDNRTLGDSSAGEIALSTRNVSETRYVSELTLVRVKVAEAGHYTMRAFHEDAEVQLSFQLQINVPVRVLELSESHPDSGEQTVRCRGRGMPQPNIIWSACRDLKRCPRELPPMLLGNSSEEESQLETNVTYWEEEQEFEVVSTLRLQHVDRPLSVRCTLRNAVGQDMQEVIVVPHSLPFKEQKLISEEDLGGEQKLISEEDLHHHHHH


Legend:
[1] = biological target: T2, full length human PDGFR-beta on HEK293 cells (human, UniProt P09619 33-1106); assay: cell-based or functional assay
[2] = biological target: T2, full length human PDGFR-beta on HEK293 …; assay: cell-based or functional assay; remark: listed apart in the source
hPDGFRb.mmh [3] = biological target: T3, hPDGFRb.mmh (human, UniProt P09619 33-531); assay: SPR, mAb captured, 25 C
T3 construct: Soluble monomeric construct; also called soluble human PDGFR-beta.mmh
Description: (§1) Antibodies, expressed as either mouse Fc (prefix H1M; H2M) or human Fc (prefix H4H), were captured on their respective anti-Fc sensor surfaces (Mab capture format). […] Kinetic association (kₐ) and dissociation (kd) rate constants were determined by processing and fitting the data to a 1:1 binding model using Scrubber 2.0 curve fitting software.

[4] = biological target: T1, Macaca fascicularis PDGFRb.mmh; assay: SPR, mAb captured, 25 C
Description: as §1

human PDGFRb.hFc [5] = biological target: T4, human PDGFRb.hFc (human); assay: SPR, mAb captured, 25 C
T4 construct: Soluble dimeric construct with human Fc; also called hPDGFRb.hFc
Description: as §1

hPDGFRb.mmh [6] = biological target: T3, hPDGFRb.mmh; assay: SPR, mAb captured, 37 C
Description: as §1

[7] = biological target: T1, Macaca fascicularis PDGFRb.mmh; assay: SPR, mAb captured, 37 C
Description: as §1

human PDGFRb.hFc [8] = biological target: T4, human PDGFRb.hFc; assay: SPR, mAb captured, 37 C
Description: as §1

hPDGFRb.mmh [9] = biological target: T3, hPDGFRb.mmh; assay: blocking ELISA, biot-hPDGFRb.mmh to coated PDGF-BB
hPDGFRb.mmh [10] = biological target: T3, hPDGFRb.mmh; assay: Octet BLI cross-competition, 25 C; hPDGFRb.mmh on anti-Penta-His tips pre-saturated with mAb-1 H4H3094P (row 5)
Description: (§2) A cross-competition assay was conducted to assess the ability of select antibodies to compete with one another for binding to human PDGFR-beta. […] Each PDGFR-beta.mmh-coated sensor tip was saturated for 5 min with a first anti-PDGFR-beta antibody (Mab #1; 50 μg/mL). Next, each sensor tip was saturated with a solution of a second anti-PDGFR-beta antibody (Mab #2). The real time response of Mab #2 binding to PDGR-beta.mmh pre-complexed with Mab #1 was then monitored. All assays were performed at 25° C. with a flow rate of 1000 rpm on an Octet RED384 biosensor in Octet HBST buffer according to manufacturer's instructions (ForteBio Corp., Menlo Park, Calif.). Results are illustrated in FIG. 2.

hPDGFRb.mmh [11] = biological target: T3, hPDGFRb.mmh; assay: Octet BLI cross-competition, 25 C; hPDGFRb.mmh on anti-Penta-His tips pre-saturated with mAb-1 H4H3099S (row 6)
Description: as §2

hPDGFRb.mmh [12] = biological target: T3, hPDGFRb.mmh; assay: Octet BLI cross-competition, 25 C; hPDGFRb.mmh on anti-Penta-His tips pre-saturated with mAb-1 H4H3103S (row 4)
Description: as §2

hPDGFRb.mmh [13] = biological target: T3, hPDGFRb.mmh; assay: Octet BLI cross-competition, 25 C; hPDGFRb.mmh on anti-Penta-His tips pre-saturated with mAb-1 H4H3107S (row 7)
Description: as §2

hPDGFRb.mmh [14] = biological target: T3, hPDGFRb.mmh; assay: Octet BLI cross-competition, 25 C; hPDGFRb.mmh on anti-Penta-His tips pre-saturated with mAb-1 H4H3305N (row 8)
Description: as §2

hPDGFRb.mmh [15] = biological target: T3, hPDGFRb.mmh; assay: Octet BLI cross-competition, 25 C; hPDGFRb.mmh on anti-Penta-His tips pre-saturated with mAb-1 H4H3310N (row 9)
Description: as §2

hPDGFRb.mmh [16] = biological target: T3, hPDGFRb.mmh; assay: Octet BLI cross-competition, 25 C; hPDGFRb.mmh on anti-Penta-His tips pre-saturated with mAb-1 H4H3374N (row 3)
Description: as §2

hPDGFRb.mmh [17] = biological target: T3, hPDGFRb.mmh; assay: Octet BLI cross-competition, 25 C; hPDGFRb.mmh on anti-Penta-His tips pre-saturated with mAb-1 H4H3365N (row 2)
Description: as §2

hPDGFRb.mmh [18] = biological target: T3, hPDGFRb.mmh; assay: Octet BLI cross-competition, 25 C; hPDGFRb.mmh on anti-Penta-His tips pre-saturated with mAb-1 Control I (row 1)
Description: as §2

| IC50, blocking PDGF-BB (250 pM) activation, SRE-luciferase [1] [M] | IC50, blocking PDGF-DD (400 pM) activation, SRE-luciferase [1] [M] | Percent Internalization (Relative to Control I) [2] [%] | Kd (hPDGFRb.mmh [3]) [nM] | koff (hPDGFRb.mmh [3]) [s⁻¹] | kon (hPDGFRb.mmh [3]) [M⁻¹ s⁻¹] | t1/2 (hPDGFRb.mmh [3]) [min] | Kd [4] [nM] | koff [4] [s⁻¹] | kon [4] [M⁻¹ s⁻¹] | t1/2 [4] [min] | Kd (human PDGFRb.hFc [5]) [nM] | koff (human PDGFRb.hFc [5]) [s⁻¹] | kon (human PDGFRb.hFc [5]) [M⁻¹ s⁻¹] | t1/2 (human PDGFRb.hFc [5]) [min] | Kd (hPDGFRb.mmh [6]) [nM] | koff (hPDGFRb.mmh [6]) [s⁻¹] | kon (hPDGFRb.mmh [6]) [M⁻¹ s⁻¹] | t1/2 (hPDGFRb.mmh [6]) [min] | Kd [7] [nM] | Binder | also measured |
| --- | --- | --- | --- | --- | --- | --- | --- | --- | --- | --- | --- | --- | --- | --- | --- | --- | --- | --- | --- | --- | --- |
| 2.3e-10 | 3.7e-10 | 65 | 1.66 | 0.000142 | 85300 | 81 | 1.7 | 0.00015 | 88300 | 77 | 0.244 | 4.55e-05 | 184000 | 254 | 5.38 | 0.00102 | 190000 | 11 | 5.06 | H4H3365N (antibody, human IgG4, V domains shown, human IgG4 Fc (H4H prefix)) VH: EVQLVESGGGLVQPGRSLRLSCAASGFTFDDFAMHWVRQVPGKGLEWVSGISWSSGTIGYVGSVKGRFTISRDNAKNSLYLQMNSLRAEDTAMYFCTKDKAAFHDAFDIWGQGTMVTVSS VL: not shown | koff [7]: 0.00101 s⁻¹; kon [7]: 200000 M⁻¹ s⁻¹; t1/2 [7]: 11 min; Kd (human PDGFRb.hFc [8]): 1.05 nM; koff (human PDGFRb.hFc [8]): 0.000264 s⁻¹; kon (human PDGFRb.hFc [8]): 250000 M⁻¹ s⁻¹; t1/2 (human PDGFRb.hFc [8]): 44 min; % Maximum Blocking (hPDGFRb.mmh [9]): 87%; IC50 (hPDGFRb.mmh [9]): 0.37 nM; Response of mAb-2 Binding to hPDGFRβ.mmh Pre-Complexed with mAb-1 (nm) (hPDGFRb.mmh [10]): 0 nm; Response of mAb-2 Binding to hPDGFRβ.mmh Pre-Complexed with mAb-1 (nm) (hPDGFRb.mmh [11]): 0.29 nm; Response of mAb-2 Binding to hPDGFRβ.mmh Pre-Complexed with mAb-1 (nm) (hPDGFRb.mmh [12]): 0.01 nm; Response of mAb-2 Binding to hPDGFRβ.mmh Pre-Complexed with mAb-1 (nm) (hPDGFRb.mmh [13]): 0.26 nm; Response of mAb-2 Binding to hPDGFRβ.mmh Pre-Complexed with mAb-1 (nm) (hPDGFRb.mmh [14]): 0.28 nm; Response of mAb-2 Binding to hPDGFRβ.mmh Pre-Complexed with mAb-1 (nm) (hPDGFRb.mmh [15]): 0.28 nm; Response of mAb-2 Binding to hPDGFRβ.mmh Pre-Complexed with mAb-1 (nm) (hPDGFRb.mmh [16]): 0.01 nm |
| 1.7e-10 | 2.4e-10 | 92 | 0.863 | 0.000191 | 221000 | 61 | 0.836 | 0.000198 | 236000 | 58 | 0.0801 | 4.24e-05 | 529000 | 272 | 1.45 | 0.000879 | 605000 | 13 | 1.38 | H4H3107S (antibody, human IgG4, V domains shown, human IgG4 Fc (H4H prefix)) VH: QVQLVESGGGFVQPGGSLRLSCAASGFTFTNYAMSWVRQAPGKGLEWVSAISGVGGSTYYADSVKGRFTISRDTSKNMLYLQMNSLRAEDTAVYYCAKAPHWGPFGSWGQGTLVTVSS VL: not shown | koff [7]: 0.000942 s⁻¹; kon [7]: 683000 M⁻¹ s⁻¹; t1/2 [7]: 12 min; Kd (human PDGFRb.hFc [8]): 0.165 nM; koff (human PDGFRb.hFc [8]): 0.000115 s⁻¹; kon (human PDGFRb.hFc [8]): 695000 M⁻¹ s⁻¹; t1/2 (human PDGFRb.hFc [8]): 101 min; % Maximum Blocking (hPDGFRb.mmh [9]): 83%; IC50 (hPDGFRb.mmh [9]): 0.066 nM; Response of mAb-2 Binding to hPDGFRβ.mmh Pre-Complexed with mAb-1 (nm) (hPDGFRb.mmh [10]): 0.36 nm; Response of mAb-2 Binding to hPDGFRβ.mmh Pre-Complexed with mAb-1 (nm) (hPDGFRb.mmh [11]): 0.01 nm; Response of mAb-2 Binding to hPDGFRβ.mmh Pre-Complexed with mAb-1 (nm) (hPDGFRb.mmh [12]): 0.33 nm; Response of mAb-2 Binding to hPDGFRβ.mmh Pre-Complexed with mAb-1 (nm) (hPDGFRb.mmh [14]): 0.02 nm; Response of mAb-2 Binding to hPDGFRβ.mmh Pre-Complexed with mAb-1 (nm) (hPDGFRb.mmh [15]): 0.02 nm; Response of mAb-2 Binding to hPDGFRβ.mmh Pre-Complexed with mAb-1 (nm) (hPDGFRb.mmh [17]): 0.32 nm; Response of mAb-2 Binding to hPDGFRβ.mmh Pre-Complexed with mAb-1 (nm) (hPDGFRb.mmh [16]): 0.31 nm; Response of mAb-2 Binding to hPDGFRβ.mmh Pre-Complexed with mAb-1 (nm) (hPDGFRb.mmh [18]): 0.28 nm |
